In patent EP1257648B2 (AMGEN INC., dated 2016):
Values joined by “and” are separate entries in the source; they are usually repeats but may differ in a detail not shown here. Identical values can stand only once.

T1: human OPGbp[143-317] (human, UniProt O14788 143-317)
T1 sequence (looked up): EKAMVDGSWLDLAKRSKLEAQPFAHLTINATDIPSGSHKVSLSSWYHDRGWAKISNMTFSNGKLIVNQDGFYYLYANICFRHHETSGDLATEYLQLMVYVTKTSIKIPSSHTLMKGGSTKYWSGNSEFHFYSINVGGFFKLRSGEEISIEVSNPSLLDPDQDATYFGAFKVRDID


Biological target: T1, human OPGbp[143-317]
Test: cell-based or functional assay

IC50, RAW cell assay (TRAP), positive control	IC50, murine bone marrow osteoclast formation assay (TRAP, pNPP)	IC50, bone marrow assay (TRAP)	Binder	IC50, RAW cell assay (TRAP)	IC50, murine bone marrow assay (TRAP)
0.033 µg/mL	–	–	human OPG [22-194]-Fc (Fc fusion, UniProt O00300 22-194, looked up, not shown: a dimerising Fc or GST) ETFPPKYLHYDEETSHQLLCDKCPPGTYLKQHCTAKWKTVCAPCPDHYYTDSWHTSDECLYCSPVCKELQYVKQECNRTHNRVCECKEGRYLEIEFCLKHRSCPPGFGVVQAGTPERNTVCKRCPDGFFSNETSSKAPCRKHTNCSVFGLLLTQKGNATHDNICSGNSESTQK	–	–
–	57.8 nM	–	Fab "AT" (Fab, V domains shown) VH: QVQLVQSGAEVRKPGASVKVSCKASGYDFSNYAIHWVRQAPGQRLEWMGWINAGNGNTKFSQKFQGRITVTRDTAASTAYMELRSLRSEDTAVYYCARDSSNMVRGIIIAYYFDYWGQGTLVTVSS VL: EIVMTQSPSSLSASVGDRVTITCRASQSISRYLNWYQLKPGKAPRLLIYGASSLQSGVPSRFSGSGSGAEFTLTISSLQPEDIATYYCQHTRAFGQGTKVEIKR	15 µg/ml and 300 nM	–
–	–	2.35 µg/ml and 14.4 nM	"AT" antibody (antibody, V domains shown) VH: QVQLVQSGAEVRKPGASVKVSCKASGYDFSNYAIHWVRQAPGQRLEWMGWINAGNGNTKFSQKFQGRITVTRDTAASTAYMELRSLRSEDTAVYYCARDSSNMVRGIIIAYYFDYWGQGTLVTVSS VL: EIVMTQSPSSLSASVGDRVTITCRASQSISRYLNWYQLKPGKAPRLLIYGASSLQSGVPSRFSGSGSGAEFTLTISSLQPEDIATYYCQHTRAFGQGTKVEIKR	60.3 nM and 21.4 nM and 3 ug/ml and 9 ug/ml and 3.2 ug/ml and 20.1 nM	2.15 ug/ml and 14.4 nM and 1.85 ug/ml and 12.5 nM
